Patent US20260008815A1, “CYCLIC PEPTIDE OR SALT THEREOF, AND USES THEREOF” (FUJIFILM Corporation, priority 2023, published 2026)
Bridge positions count the residues as written; N and C are the ends. Ends that are not written are not given here. COCH2 = acetyl group that carries the bridge

Biological target: T1, Recombinant Human FGFR2 alpha (IIIc) Fc Chimera Protein (Homo sapiens, UniProt P21802)
T1 construct: Fc (chimera); purchased R&D systems 712-FR-050
Test: ELISA binding affinity of enzymatically synthesized peptide to FGFR
Settings: ELISA luminescence signal at 10 nmol/L peptide, SEQ ID NO: 47 at 10 nmol/L standardized to 1; enzyme synthesis product
Procedure: The binding affinity of the peptide to FGFR was evaluated using an ELISA method.
The binding affinity of the enzymatically synthesized peptide to FGFR was measured by evaluating the amount of the peptide bound to FGFR by ELISA.
First, 5 ng of Recombinant Human FGFR2 alpha (IIIc) Fc Chimera Protein (R&D systems, 712-FR-050) was immobilized in each well of a 96-well plate, and blocked with Pierce Protein-Free (PBS) Blocking Buffer (Thermo, 37572), and a peptide diluted with Can Get Signal Immunoreaction Enhancer Solution I (TOYOBO, NKB-101) was then added and reacted at room temperature for 3 hours. After washing with 0.05% Tween 20-containing phosphate buffered saline (PBS), an anti-Myc antibody (Cell Signaling, 14038S) diluted with Can Get Signal Immunoreaction Enhancer Solution II (TOYOBO, NKB-101) was added and reacted at room temperature for 2 hours. After washing with 0.05% Tween 20-containing PBS, SuperSignal ELISA Femto Substrate (Thermo, 37075) was added, and the luminescence amount was measured. The dose-response relationship was calculated from using the difference between the luminescence amount in the well in which FGFR was immobilized and the luminescence amount in the well in which FGFR was not immobilized, and the concentration of the peptide at the time of reaction, and the binding affinity to FGFR was evaluated according to the following evaluation criteria. The evaluation result preferably satisfies the evaluation criteria A, B, or C.
In a case where a value of a luminescence signal emitted by the cyclic peptide set forth in SEQ ID NO: 47 at a reaction concentration of 10 nmol/L is standardized to 1, evaluation criteria of the luminescence signal value emitted by the cyclic peptide at a reaction concentration of 10 nmol/L is as follows. • A: 0.7 or more • B: 0.5 or more and less than 0.7 • C: 0.1 or more and less than 0.5 • D: less than 0.1.

T1 sequence (P21802 with tags, fused parts or gaps limits assumed): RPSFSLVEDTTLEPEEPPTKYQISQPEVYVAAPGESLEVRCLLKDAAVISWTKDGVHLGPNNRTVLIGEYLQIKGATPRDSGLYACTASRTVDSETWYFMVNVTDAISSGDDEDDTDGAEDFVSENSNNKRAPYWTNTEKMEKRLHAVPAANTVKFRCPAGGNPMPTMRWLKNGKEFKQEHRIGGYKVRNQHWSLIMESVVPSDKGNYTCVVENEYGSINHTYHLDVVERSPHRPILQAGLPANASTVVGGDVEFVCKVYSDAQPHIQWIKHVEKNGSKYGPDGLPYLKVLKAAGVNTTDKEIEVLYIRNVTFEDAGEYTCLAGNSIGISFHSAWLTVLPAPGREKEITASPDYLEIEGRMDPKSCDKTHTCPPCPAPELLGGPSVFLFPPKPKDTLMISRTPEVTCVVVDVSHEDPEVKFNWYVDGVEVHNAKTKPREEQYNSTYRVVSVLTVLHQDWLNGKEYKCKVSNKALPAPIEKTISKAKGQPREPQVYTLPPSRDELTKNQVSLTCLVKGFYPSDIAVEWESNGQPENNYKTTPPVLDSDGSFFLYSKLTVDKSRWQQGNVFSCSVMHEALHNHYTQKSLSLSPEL

| Substance | Evaluation result of binding affinity to FGFR |
| --- | --- |
| 80 (QCPQNFINPVQWRYFQHYK(COCH2)N; thioether 2-19 (inferred)) [compound 80] | A (0.7 or more) |
| 81 (SCPQNFINPVQWRYFQHYK(COCH2)N; thioether 2-19 (inferred)) [compound 81] | A (0.7 or more) |
| 82 (TCPQNFINPVQWRYFQHYK(COCH2)N; thioether 2-19 (inferred)) [compound 82] | A (0.7 or more) |
| 83 (DCPQNFINPVQWRYFQHYK(COCH2)N; thioether 2-19 (inferred)) [compound 83] | A (0.7 or more) |
| 84 (ECPQNFINPVQWRYFQHYK(COCH2)N; thioether 2-19 (inferred)) [compound 84] | A (0.7 or more) |
| 85 (RCPQNFINPVQWRYFQHYK(COCH2)N; thioether 2-19 (inferred)) [compound 85] | A (0.7 or more) |
| 86 (HCPQNFINPVQWRYFQHYK(COCH2)N; thioether 2-19 (inferred)) [compound 86] | A (0.7 or more) |
| 87 (QCPQNFINPVHWRYFQHYK(COCH2)N; thioether 2-19 (inferred)) [compound 87] | A (0.7 or more) |
| 88 (QCPQNFINPVQWRYLQHYK(COCH2)N; thioether 2-19 (inferred)) [compound 88] | A (0.7 or more) |
| 89 (QCPQNFINPVQWRYYQHYK(COCH2)N; thioether 2-19 (inferred)) [compound 89] | B (0.5 or more and less than 0.7) |
| 90 (QCPQNFINPVQWRYRQHYK(COCH2)N; thioether 2-19 (inferred)) [compound 90] | C (0.1 or more and less than 0.5) |
| 91 (QCPQNFINPVQWRYFQHVK(COCH2)N; thioether 2-19 (inferred)) [compound 91] | C (0.1 or more and less than 0.5) |
| 92 (QCPQNFINPVQWRYFQHFK(COCH2)N; thioether 2-19 (inferred)) [compound 92] | A (0.7 or more) |
| 93 (QCPQNFINPVQWRYFQHWK(COCH2)N; thioether 2-19 (inferred)) [compound 93] | A (0.7 or more) |
| 94 (QCPQNFINPVQWRYFQHSK(COCH2)N; thioether 2-19 (inferred)) [compound 94] | C (0.1 or more and less than 0.5) |
| 95 (QCPQGFINPVQWRYFQHYK(COCH2)N; thioether 2-19) [compound 95] | C (0.1 or more and less than 0.5) |
| 96 (QCPQYFINPVQWRYFQHYK(COCH2)N; thioether 2-19) [compound 96] | C (0.1 or more and less than 0.5) |
| 97 (QCPQSFINPVQWRYFQHYK(COCH2)N; thioether 2-19) [compound 97] | C (0.1 or more and less than 0.5) |
| 98 (QCPQTFINPVQWRYFQHYK(COCH2)N; thioether 2-19) [compound 98] | C (0.1 or more and less than 0.5) |
| 99 (QCPQEFINPVQWRYFQHYK(COCH2)N; thioether 2-19) [compound 99] | C (0.1 or more and less than 0.5) |
| 100 (QCPQHFINPVQWRYFQHYK(COCH2)N; thioether 2-19 (inferred)) [compound 100] | C (0.1 or more and less than 0.5) |
| 101 (QCPQNFINPVQIRYFQHYK(COCH2)N; thioether 2-19 (inferred)) [compound 101] | C (0.1 or more and less than 0.5) |
| 102 (QCPQNFINPVQVRYFQHYK(COCH2)N; thioether 2-19 (inferred)) [compound 102] | C (0.1 or more and less than 0.5) |
| 103 (QCPQNFINPVQFRYFQHYK(COCH2)N; thioether 2-19 (inferred)) [compound 103] | B (0.5 or more and less than 0.7) |

| Substance | Evaluation result of binding affinity to FGFR |
| --- | --- |
| 104 (QCPQNFINPVQYRYFQHYK(COCH2)N; thioether 2-19 (inferred)) [compound 104] | B (0.5 or more and less than 0.7) |
| 105 (QCPQNFINPVQSRYFQHYK(COCH2)N; thioether 2-19 (inferred)) [compound 105] | C (0.1 or more and less than 0.5) |
| 106 (QCPQNFINPVQHRYFQHYK(COCH2)N; thioether 2-19 (inferred)) [compound 106] | A (0.7 or more) |
| 107 (YCTDNYIDDIQFWYLFLYK(COCH2)Q; thioether 2-19 (inferred)) [compound 107] | B (0.5 or more and less than 0.7) |
| 108 (LCRNYINPQQWRYFALYK(COCH2)Y; thioether 2-18 (inferred)) [compound 108] | A (0.7 or more) |
| 109 (DCFINELQYFYIQQYK(COCH2)K; thioether 2-16 (inferred)) [compound 109] | B (0.5 or more and less than 0.7) |
| 110 (QCQTDHQQQLYFIYQYLQK(COCH2)I; thioether 2-19 (inferred)) [compound 110] | C (0.1 or more and less than 0.5) |
| 111 (QCDQEFYLALYAWTLRSYK(COCH2)L; thioether 2-19 (inferred)) [compound 111] | C (0.1 or more and less than 0.5) |
| 112 (HCQPEYELYYIYLYLNALK(COCH2)I; thioether 2-19 (inferred)) [compound 112] | C (0.1 or more and less than 0.5) |
| 113 (RCINYWSGQQFYFFQQYK(COCH2)F; thioether 2-18 (inferred)) [compound 113] | C (0.1 or more and less than 0.5) |
| 114 (YCTDNYIDDIQFWYLFLYK(COCH2)H; thioether 2-19 (inferred)) [compound 114] | A (0.7 or more) |
| 115 (NCPNYWSQIQWHYFQAYK(COCH2)Q; thioether 2-18 (inferred)) [compound 115] | A (0.7 or more) |
| 116 (QCYQNWYLYQYLVERYYK(COCH2)D; thioether 2-18 (inferred)) [compound 116] | C (0.1 or more and less than 0.5) |
| 117 (LCRNYINPQQWRYFALYK(COCH2)N; thioether 2-18 (inferred)) [compound 117] | A (0.7 or more) |
| 118 (LCPVPQQTDYLRWYQIIHK(COCH2)Q; thioether 2-19 (inferred)) [compound 118] | C (0.1 or more and less than 0.5) |
| 119 (QCRYFWQYVLERYRVRLPK(COCH2)E; thioether 2-19 (inferred)) [compound 119] | A (0.7 or more) |
| 120 (QCWYIQQYIWERYFLWHNK(COCH2)E; thioether 2-19 (inferred)) [compound 120] | C (0.1 or more and less than 0.5) |
| 121 (DCYWDDQQYSFLQLYK(COCH2)R; thioether 2-16 (inferred)) [compound 121] | A (0.7 or more) |
| 122 (QCENWVNSTQFEFFWQYK(COCH2)T; thioether 2-18 (inferred)) [compound 122] | B (0.5 or more and less than 0.7) |
| 123 (QCQNFITEVQFTYFWHYK(COCH2)T; thioether 2-18 (inferred)) [compound 123] | A (0.7 or more) |
| 124 (DCRDLQLFYIYQYLDALK(COCH2)K; thioether 2-18 (inferred)) [compound 124] | C (0.1 or more and less than 0.5) |
| 125 (YCRDNYFYLEQWQYLYLYK(COCH2)H; thioether 2-19 (inferred)) [compound 125] | A (0.7 or more) |
| 126 (LCEINWLSQEQYGYFIEYK(COCH2)T; thioether 2-19 (inferred)) [compound 126] | A (0.7 or more) |
| 127 (YCPYNFYNIIQFHYFLTYK(COCH2)T; thioether 2-19 (inferred)) [compound 127] | A (0.7 or more) |
